Assay results as given in patent US11459578B2, “Carbon fixation systems in plants and algae” (NMC, INC., priority 2014, dated 2022).
“Also recorded” adds a separate entry of the source.

Key:
Type in all cases: in vivo
[1] = tested on: Arabidopsis; assay: Growth phenotypes of transgenic Arabidopsis
Source text: (§1) Previously, reconstitution of a functional inorganic CCM in C3 plants to suppress photorespiration and enhance photosynthesis was proposed. In WO 2012/125737, it was hypothesized that expression of a minimum of three algal CCM proteins would be sufficient to elevate internal plastid CO2 concentrations high enough to suppress photorespiration. These three algal CCM genes included the Chlamydomonas plasma membrane-localized and ATP-dependent bicarbonate transporter, HLA3; the chloroplast envelope localized bicarbonate anion transporter, LCIA; and a chloroplast stromal-localized carbonic anhydrase (HCA-II) to accelerate conversion of bicarbonate into CO2. […] To test this hypothesis, we generated multiple independent transgenic Arabidopsis and Camelina plants expressing each CCM gene as a single gene construct, as well as a stacked 3-gene construct. The expression of each gene was controlled by the light-regulated Cab1 gene promoter.
Finally, we also grew transgenics on ammonium with sucrose which would presumably provide additional ATP via respiration. We hypothesized that growth on nitrate or ammonium with sucrose would provide additional ATP that could potentially drive HLA3 activity.

[2] = tested on: Camelina; assay: CO2-dependent photosynthetic rates of transgenic Camelina
Source text: FIGS. 5A-5C. Growth phenotypes of WT and LCIA transgenic (T1) Arabidopsis plants four weeks after germination. (B) Four-week-old WT (left 4 plants) and independent transgenic Camelina (right 4 plants) expressing LCIA. (C) CO2-dependent photosynthetic rates of WT and LCIA transgenic Camelina.
We propose that the substantially greater carbon sink-strength of Camelina relative to Arabidopsis accounts for the enhanced growth phenotype observed in Camelina LCIA plants. In support of this hypothesis, we observed that Camelina LCIA transgenics had higher CO2-dependent rates of photosynthesis and lower CO2 compensation points (40 vs. 53 ppm CO2) than WT plants indicative of facilitated inorganic carbon uptake by LCIA (FIG. 5C).

[3] = tested on: Camelina; assay: Growth phenotypes and seed recovery of transgenic Camelina
Source text: as §1

B1: LCIA: chloroplast envelope localized bicarbonate anion transporter, expressed in transgenic plants (protein, listed as Chlamydomonas reinhardtii)
chain: MQTTMTRPCLAQPVLRSRVLRSPMRVVAASAPTAVTTVVTSNGNGNGHFQAATTPVPPTPAPVAVSAPVRAVSVLTPPQVYENAINVGAYKAGLTPLATFVQGIQAGAYIAFGAFLAISVGGNIPGVAAANPGLAKLLFALVFPVGLSMVTNCGAELFTGNTMMLTCALIEKKATWGQLLKNWSVSYFGNFVGSIAMVAAVVATGCLTTNTLPVQMATLKANLGFTEVLSRSILCNWLVCCAVWSASAATSLPGRILALWPCITAFVAIGLEHSVANMFVIPLGMMLGAEVTWSQFFFNNLIPVTLGNTIAGVLMMAIAYSISFGSLGKSAKPATA
**Q.** Which “growth phenotype relative to WT” value [1] does the source give for B1 here?
**A.** substantially impaired in growth; also recorded: severely depressed growth phenotypes

**Q.** What about the “CO2-dependent photosynthetic rates relative to WT” value [2] of the same molecule?
**A.** higher CO2-dependent photosynthetic rates

**Q.** And the CO2 compensation point [2]?
**A.** 40 ppm CO2

**Q.** What about the “CO2 compensation points relative to WT” value [2] of the same molecule?
**A.** reduced CO2 compensation points

**Q.** What about the “higher photosynthetic rates than WT” value ([2]; ambient CO2 concentrations) of the same molecule?
**A.** up to 25%

**Q.** And the “growth phenotype / viability relative to WT” value [3]?
**A.** grew better than WT; also recorded: increased growth rates
